B1: Nfasc 1198 to 1214 E1204A (domain or fragment, UniProt P97685 1198-1214, looked up)
chain: GEGQFNADGSFIGQYTV
notes: source: E. coli BL21 (DE3), purified (Ni-NTA, size-exclusion chromatography)
B2: Nfasc 1198 to 1214 F1202Q (domain or fragment, UniProt P97685 1198-1214, looked up)
chain: GEGQQNEDGSFIGQYTV
notes: as for B1
B3: Nfasc 1198 to 1214 Y1212E (domain or fragment, UniProt P97685 1198-1214, looked up)
chain: GEGQFNEDGSFIGQETV
notes: also called Y1212E phosphorylation mimic variant; source: E. coli BL21 (DE3), purified (Ni-NTA, size-exclusion chromatography)
B4: full-length Nfasc cytoplasmic tail (residues 1132-1240) (domain or fragment)
chain: KRSRGGKYPVREKKDVPLGPEDPKEEDGSFDYSDEDNKPLQGSQTSLDGTIKQQESDDSLVDYGEGGEGQFNEDGSFIGQYTVRKDKEETEGNESSEATSPVNAIYSLA
B5: NrCAM (domain or fragment)
chain: RRNKGGKYPVKEKEDAHADPEIQPMKEDDGTFGEYSDAEDHKPLKKGSRTPSDRTVKKEDSDDSLVDYGEGVNGQFNEDGSFIGQYSGKKEKEPAEGNESSEAPSPVNAMNSFV
B6: CHL1 (domain or fragment)
chain: IEIPSSVQQVPTIIKQSKVQVAFPFDEYFQIECEAKGNPEPTFSWTKDGNPFYFTDHRIIPSNNSGTFRIPNEGHISHFQGKYRCFASNKLGIAMSEEIEFIVPSVPKFPKEKIDPLEVEEGDPIVLPCNPPKGLPPLHIYWMNIELEHIEQDERVYMSQKGDLYFANVEEKDSRNDYCCFAAFPRLRTIVQKMPMKLTVNSSNSIKQRKPKLLLPPTESGSESSITILKGEILLLECFAEGLPTPQVDWNKIGGDLPKGRETKENYGKTLKIENVSYQDKGNYRCTASNFLGTATHDFHVIVEEPPRWTKKPQSAVYSTGSNGILLCEAEGEPQPTIKWRVNGSPVDNHPFAGDVVFPREISFTNLQPNHTAVYQCEASNVHGTILANANIDVVDVRPLIQTKDGENYATVVGYSAFLHCEFFASPEAVVSWQKVEEVKPLEGRRYHIYENGTLQINRTTEEDAGSYSCWVENAIGKTAVTANLDIRNATKLRVSPKNPRIPKLHMLELHCESKCDSHLKHSLKLSWSKDGEAFEINGTEDGRIIIDGANLTISNVTLEDQGIYCCSAHTALDSAADITQVTVLDVPDPPENLHLSERQNRSVRLTWEAGADHNSNISEYIVEFEGNKEEPGRWEELTRVQGKKTTVILPLAPFVRYQFRVIAVNEVGRSQPSQPSDHHETPPAAPDRNPQNIRVQASQPKEMIIKWEPLKSMEQNGPGLEYRVTWKPQGAPVEWEEETVTNHTLRVMTPAVYAPYDVKVQAINQLGSGPDPQSVTLYSGEDYPDTAPVIHGVDVINSTLVKVTWSTVPKDRVHGRLKGYQINWWKTKSLLDGRTHPKEVNILRFSGQRNSGMVPSLDAFSEFHLTVLAYNSKGAGPESEPYIFQTPEGVPEQPTFLKVIKVDKDTATLSWGLPKKLNGNLTGYLLQYQIINDTYEIGELNDINITTPSKPSWHLSNLNATTKYKFYLRACTSQGCGKPITEESSTLGEGSKGIGKISGVNLTQKTHPIEVFEPGAEHIVRLMTKNWGDNDSIFQDVIETRGREYAGLYDDISTQGWFIGLMCAIALLTLLLLTVCFVKRNRGGKYSVKEKEDLHPDPEIQSVKDETFGEYSDSDEKPLKGSLRSLNRDMQPTESADSLVEYGEGDHGLFSEDGSFIGAYAGSKEKGSVESNGSSTATFPLRA

Target: T1, AnkG ANK repeats (residues 38-855, R1-24) (UniProt O70511 38-855)
T1 chain: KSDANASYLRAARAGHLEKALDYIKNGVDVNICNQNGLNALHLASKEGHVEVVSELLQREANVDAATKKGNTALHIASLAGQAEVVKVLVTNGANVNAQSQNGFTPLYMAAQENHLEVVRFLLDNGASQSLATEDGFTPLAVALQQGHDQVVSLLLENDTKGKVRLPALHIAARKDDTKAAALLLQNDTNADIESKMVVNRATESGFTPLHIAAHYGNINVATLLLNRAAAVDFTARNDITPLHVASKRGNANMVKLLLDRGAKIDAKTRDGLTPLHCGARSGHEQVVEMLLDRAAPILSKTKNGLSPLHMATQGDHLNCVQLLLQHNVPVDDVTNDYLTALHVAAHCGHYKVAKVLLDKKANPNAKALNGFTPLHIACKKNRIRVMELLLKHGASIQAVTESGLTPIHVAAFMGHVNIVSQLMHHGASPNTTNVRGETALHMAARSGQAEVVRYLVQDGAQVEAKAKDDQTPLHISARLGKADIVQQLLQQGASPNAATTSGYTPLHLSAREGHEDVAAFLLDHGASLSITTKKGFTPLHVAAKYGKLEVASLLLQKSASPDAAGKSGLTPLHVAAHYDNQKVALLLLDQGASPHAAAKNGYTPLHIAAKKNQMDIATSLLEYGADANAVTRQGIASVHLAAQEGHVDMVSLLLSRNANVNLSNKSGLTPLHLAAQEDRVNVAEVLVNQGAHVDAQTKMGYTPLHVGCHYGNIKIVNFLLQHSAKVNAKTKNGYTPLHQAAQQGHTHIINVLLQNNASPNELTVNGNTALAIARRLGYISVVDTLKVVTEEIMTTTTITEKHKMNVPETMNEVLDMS
Test: ITC
Conditions: not given

Row | Binder | Kd [nM]
1 | GEGQFNEAGSFIGQYTV (domain or fragment) [Nfasc 1198 to 1214 D1205A] | 1300
2 | GEGQFNEDGAFIGQYTV [Nfasc 1198-1214 S1207A] | 1200
3 | GEGQFNEKGSFIGQYTV (domain or fragment) [Nfasc 1198 to 1214 D1205K] | 7700
4 | GEGQFAEDGSFIGQYTV [Nfasc 1198-1214 N1203A] | 260
5 | GEGQFNEDGSQIGQYTV (domain or fragment) [Nfasc 1198 to 1214 F1208Q] | 1400
6 | B1 | 9200
7 | B2 | 7100
8 | B3 | 3200
9 | GEGQFNEDGSFQGQYTV (domain or fragment) [Nfasc 1198 to 1214 I1209Q] | 1000
10 | GEGQFNEDGSFIGQYAV [Nfasc 1198-1214 T1213A] | 460

Target: T2, AnkG ANK repeats (residues 38-855, R1-24) (UniProt O70511 38-855)
T2 construct: Ankyrin-G (AnkG), ANK repeats R1-24, residues 38-855; In human Q12955 the same residues seem to stand 8 lower (I277 here = I269 there); Cloned into a modified pET32a vector; the tag is said to be removed only for the crystallisation proteins; also called AnkG R1-24; Ankyrin-G ankyrin repeats; source: E. coli BL21 (DE3), purified (Ni-NTA, size-exclusion chromatography)
T2 sequence (looked up): T1 chain
Test: ITC; VP-ITC at 25 °C; 50 mM Tris, 100 mM NaCl, 1 mM EDTA, 1 mM DTT, pH 7.8; Nfasc proteins (200 μM) in the syringe, AnkG proteins (20 μM) in the cell; one-site binding model
Conditions: both partners purified

Row | Binder | fold decrease in binding affinity against Nfasc 1198 to 1214 WT [fold] | fold decrease in binding against Nfasc 1198 to 1214 WT [fold]
11 | B1 | ~27 | –
12 | B2 | – | > 20
13 | B3 | – | ~9

Target: T1, AnkG ANK repeats (residues 38-855, …)
Test: ITC
Conditions: not given
Remark: another data set of the same source

Row | Binder | Kd [nM]
14 | GEGQFNEDGSFIGQYTV (domain or fragment) [Nfasc 1198 to 1214 WT] | 340
15 | B4 | 930

Target: T1, AnkG ANK repeats (residues 38-855, …)
Test: ITC
Conditions: not given
Remark: another data set of the same source

Row | Binder | Kd [nM]
16 | B5 | 700
17 | SDDSLADYGGSVDVQFNEDGSFIGQYSG (domain or fragment) [L1CAM (construct of the ITC assay)] | 1100
18 | B6 | 900
